# Laboratory results: patent publication JP2014141434A (dated 2014)
# T1: マウスROBO4 (pCI−mROBO4導入細胞) (mouse, UniProt Q8C310 28-1012)
# T1 construct: also called mouse ROBO4; mROBO4
# T1 sequence: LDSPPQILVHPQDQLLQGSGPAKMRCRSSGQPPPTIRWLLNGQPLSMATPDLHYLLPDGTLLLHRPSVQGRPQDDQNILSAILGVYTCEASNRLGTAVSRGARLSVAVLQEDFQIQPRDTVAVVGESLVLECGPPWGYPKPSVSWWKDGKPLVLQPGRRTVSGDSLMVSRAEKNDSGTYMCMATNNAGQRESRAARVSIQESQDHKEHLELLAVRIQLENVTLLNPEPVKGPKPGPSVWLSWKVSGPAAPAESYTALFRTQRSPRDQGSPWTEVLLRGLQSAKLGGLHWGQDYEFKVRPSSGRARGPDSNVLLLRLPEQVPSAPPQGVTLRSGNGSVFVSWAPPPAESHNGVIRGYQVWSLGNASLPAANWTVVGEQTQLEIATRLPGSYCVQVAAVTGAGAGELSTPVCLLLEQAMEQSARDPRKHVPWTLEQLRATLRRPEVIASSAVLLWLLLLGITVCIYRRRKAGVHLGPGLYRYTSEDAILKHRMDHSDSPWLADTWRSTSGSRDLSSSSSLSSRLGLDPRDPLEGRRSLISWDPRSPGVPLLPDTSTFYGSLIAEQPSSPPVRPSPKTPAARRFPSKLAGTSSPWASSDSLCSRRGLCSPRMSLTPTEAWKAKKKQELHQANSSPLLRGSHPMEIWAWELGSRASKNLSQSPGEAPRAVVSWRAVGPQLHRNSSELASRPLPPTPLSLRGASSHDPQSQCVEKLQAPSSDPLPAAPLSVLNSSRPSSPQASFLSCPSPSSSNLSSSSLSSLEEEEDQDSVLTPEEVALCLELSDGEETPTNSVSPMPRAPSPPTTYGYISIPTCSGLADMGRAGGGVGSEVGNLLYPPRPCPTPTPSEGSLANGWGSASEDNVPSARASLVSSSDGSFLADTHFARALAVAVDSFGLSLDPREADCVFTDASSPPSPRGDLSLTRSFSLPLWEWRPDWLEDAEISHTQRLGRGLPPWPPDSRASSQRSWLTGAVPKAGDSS
# T2: ヒトROBO3 (human, UniProt Q96MS0 21-1386)
# T2 construct: also called hROBO3; pCI−hROBO3
# T2 sequence: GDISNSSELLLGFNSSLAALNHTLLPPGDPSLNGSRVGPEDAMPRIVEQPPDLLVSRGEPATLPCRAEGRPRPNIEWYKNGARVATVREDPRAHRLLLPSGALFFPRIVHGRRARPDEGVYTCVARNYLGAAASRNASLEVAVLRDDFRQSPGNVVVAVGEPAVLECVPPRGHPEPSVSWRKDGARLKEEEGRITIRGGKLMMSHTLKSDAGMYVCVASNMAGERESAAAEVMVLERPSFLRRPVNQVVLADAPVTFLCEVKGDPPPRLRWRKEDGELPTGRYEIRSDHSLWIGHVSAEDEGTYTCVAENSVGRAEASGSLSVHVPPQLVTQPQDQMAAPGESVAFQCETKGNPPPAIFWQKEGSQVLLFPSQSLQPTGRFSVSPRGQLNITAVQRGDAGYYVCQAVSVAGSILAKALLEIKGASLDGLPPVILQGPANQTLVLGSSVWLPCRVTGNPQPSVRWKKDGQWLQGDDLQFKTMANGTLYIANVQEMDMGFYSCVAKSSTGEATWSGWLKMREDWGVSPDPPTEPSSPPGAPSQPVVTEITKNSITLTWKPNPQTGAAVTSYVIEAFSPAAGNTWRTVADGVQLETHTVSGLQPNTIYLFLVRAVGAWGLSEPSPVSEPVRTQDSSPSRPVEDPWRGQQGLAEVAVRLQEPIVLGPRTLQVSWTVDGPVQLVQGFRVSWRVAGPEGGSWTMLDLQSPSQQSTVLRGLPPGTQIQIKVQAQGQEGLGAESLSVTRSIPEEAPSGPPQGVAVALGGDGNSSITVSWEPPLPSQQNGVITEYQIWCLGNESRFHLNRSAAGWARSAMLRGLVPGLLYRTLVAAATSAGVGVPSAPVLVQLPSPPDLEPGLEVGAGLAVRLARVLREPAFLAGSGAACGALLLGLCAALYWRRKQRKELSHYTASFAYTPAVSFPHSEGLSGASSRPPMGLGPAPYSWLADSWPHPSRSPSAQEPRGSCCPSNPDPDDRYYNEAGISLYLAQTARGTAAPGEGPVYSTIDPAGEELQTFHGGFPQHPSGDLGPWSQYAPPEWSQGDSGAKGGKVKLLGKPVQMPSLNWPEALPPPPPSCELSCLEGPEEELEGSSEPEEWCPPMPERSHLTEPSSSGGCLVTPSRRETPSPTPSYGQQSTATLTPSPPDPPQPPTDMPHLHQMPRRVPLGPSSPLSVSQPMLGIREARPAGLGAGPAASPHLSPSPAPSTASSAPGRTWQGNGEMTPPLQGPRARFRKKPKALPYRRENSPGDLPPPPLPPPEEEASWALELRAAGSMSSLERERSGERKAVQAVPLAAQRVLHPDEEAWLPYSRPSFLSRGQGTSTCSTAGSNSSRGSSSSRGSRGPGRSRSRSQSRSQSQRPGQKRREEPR
# Legend:
# [1] = molecular target: T1, マウスROBO4 (pCI−mROBO4導入細胞); assay: flow cytometry, transfected HEK293 cells
# ヒトROBO3 = molecular target: T2, ヒトROBO3; assay: flow cytometry, transfected HEK293 cells
Binder,binding result [1],binding result (ヒトROBO3)
"ヒト化MAb1抗体 H−2143 (antibody, human IgG2, kappa, V domains shown, Humanised IgG2 / kappa; also called H-2143; hMAb1-H4 / hMAb1-L2) VH: EVQLVESGGGLVQPGGSLRLSCAASGFTFSTYAMSWVRQAPGKRLEWVATISQGGTYTYYPDSVKGRFTISRDNAKNTLYLQMNSLRAEDTAVYYCARLIYYDYLDYWGQGTLVTVSS VL: DIVMTQSPLSLPVTLGEPASISCRSSQSLENENKNLYLNWYLQKPGQSPQLLIYRVSNRFSGVPDRFSGSGSGTDFTLKISRVEAEDVGVYYCLQVTHVPWTFGPGTKVDIKR",no binding (tested: 10 μg/mL (method of 4)-3-2)),no binding (tested: 10 μg/mL (method of 4)-4-2))
"ヒト化MAb1抗体 H−1143 (antibody, human IgG2, kappa, V domains shown, Humanised IgG2 / kappa; also called H-1143; hMAb1-H2 / hMAb1-L2) VH: EVQLVESGGGLVQPGGSLRLSCAASGFTFSTYAMSWVRQAPGKGLEWVATISQGGTYTYYPDSVKGRFTISRDNAKNTLYLQMNSLRAEDTAVYYCARLIYYDYLDYWGQGTLVTVSS VL: DIVMTQSPLSLPVTLGEPASISCRSSQSLENENKNLYLNWYLQKPGQSPQLLIYRVSNRFSGVPDRFSGSGSGTDFTLKISRVEAEDVGVYYCLQVTHVPWTFGPGTKVDIKR",no binding (tested: 10 μg/mL (method of 4)-3-2)),no binding (tested: 10 μg/mL (method of 4)-4-2))
"ヒト化MAb1抗体 H−2140 (antibody, human IgG2, kappa, V domains shown, Humanised IgG2 / kappa; also called H-2140; hMAb1-H4 / hMAb1-L1) VH: EVQLVESGGGLVQPGGSLRLSCAASGFTFSTYAMSWVRQAPGKRLEWVATISQGGTYTYYPDSVKGRFTISRDNAKNTLYLQMNSLRAEDTAVYYCARLIYYDYLDYWGQGTLVTVSS VL: DIVMTQSPLSLPVTLGEPASISCRSSQSLENSNGNTYLNWYLQKPGQSPQLLIYRVSNRFSGVPDRFSGSGSGTDFTLKISRVEAEDVGVYYCLQVTHVPWTFGPGTKVDIKR",no binding (tested: 10 μg/mL (method of 4)-3-2)),no binding (tested: 10 μg/mL (method of 4)-4-2))
"抗ROBO4マウスモノクローナル抗体 MAb1 (antibody, V domains shown, Mouse IgG1 (gamma 1) / kappa from a hybridoma; The constant regions are not in the listing; also called MAb1) VH: EVQLVESGGGLVKPGGSLKLSCAASGFTFSTYAMSWVRQTPEKRLEWVATISNGGTYTYYPDSVKGRFTISRDNAENTLYLQMSSLRSEDTAMYFCARLIYYDYLDYWGHGTTLTVSS VL: DAVMTQTPLSLPVSLGDQASISCRSSQSLENSNGNTYLNWYFQKPGQSPQLLIYRVSNRFSGVLDRFSGSGSGTDFTLKISRVEAEDFGVYFCLQVTHVPWTFGGGTKLEIKR",no binding (tested: 10 μg/mL),no binding (tested: 10 μg/mL)
